According to US20210238260:
Changes are numbered by the printed parent chain. In names and notes the source's numbering stands.

B1: FIXa D104N/K106S/R318Y/R338E/R403E/E410N (protein)
chain 1: YNSGKLEEFVQGNLERECMEEKCSFEEAREVFENTERTTEFWKQYVDGDQCESNPCLNGGSCKDDINSYECWCPFGFEGKNCELDVTCNIKNGRCEQFCKNSANNSVVCSCTEGYRLAENQKSCEPAVPFPCGRVSVSQTSKLTR
chain 2: VVGGEDAKPGQFPWQVVLNGKVDAFCGGSIVNEKWIVTAAHCVETGVKITVVAGEHNIEETEHTEQKRNVIRIIPHHNYNAAINKYNHDIALLELDEPLVLNSYVTPICIADKEYTNIFLKFGSGYVSGWGRVFHKGYSALVLQYLRVPLVDRATCLESTKFTIYNNMFCAGFHEGGRDSCQGDSGGPHVTEVEGTSFLTGIISWGEECAMKGKYGIYTKVSEYVNWIKNKTKLT
B2: FIXa Y155F/R318Y/R338E/R403E/E410N (protein)
chain 1: B1 chain 1 with N104D, S106K
chain 2: B1 chain 2
B3: FIXa A103N/N105S/Y155F/R318Y/R338E/R403E/E410N (protein)
chain 1: B1 chain 1 with A103N, N104D, N105S, S106K
chain 2: B1 chain 2
B4: FIXa D104N/K106S/Y155F/R318Y/R338E/R403E/E410N (protein)
chain 1: B1 chain 1
chain 2: B1 chain 2
B5: FIXa variant K247N/N249S/N260S (mature FIX numbering) (protein)
chain 1: B1 chain 1 with N104D, S106K
chain 2: B1 chain 2 with K67N, N69S, N80S, Y138R, E158R, E223R, N230E
B6: FIXa variant Y155F/K247N/N249S/N260S (mature FIX numbering) (protein)
chain 1: B1 chain 1 with N104D, S106K
chain 2: B1 chain 2 with K67N, N69S, N80S, Y138R, E158R, E223R, N230E
B7: FIXa variant D104N/K106S/K247N/N249S/N260S (mature FIX numbering) (protein)
chain 1: B1 chain 1
chain 2: B1 chain 2 with K67N, N69S, N80S, Y138R, E158R, E223R, N230E
B8: FIXa variant D104N/K106S/Y155F/K247N/N249S/N260S (mature FIX numbering) (protein)
chain 1: B1 chain 1
chain 2: B1 chain 2 with K67N, N69S, N80S, Y138R, E158R, E223R, N230E
B9: FIXa variant K247N/N249S/N260S/R318Y/R338E/R403E/E410N (mature FIX numbering) (protein)
chain 1: B1 chain 1 with N104D, S106K
chain 2: B1 chain 2 with K67N, N69S, N80S
B10: FIXa variant R318Y/R338E/T343R/R403E/E410N (mature FIX numbering) (protein)
chain 1: B1 chain 1 with N104D, S106K
chain 2: B1 chain 2 with T163R
B11: FIXa variant R318Y/R338E/N346Y/R403E/E410N (mature FIX numbering) (protein)
chain 1: B1 chain 1 with N104D, S106K
chain 2: B1 chain 2 with N166Y
B12: FIXa variant R318Y/R338E/T343R/N346Y/R403E/E410N (mature FIX numbering) (protein)
chain 1: B1 chain 1 with N104D, S106K
chain 2: B1 chain 2 with T163R, N166Y
B13: FIXa variant R318Y/R338E/T343R/N346D/R403E/E410N (mature FIX numbering) (protein)
chain 1: B1 chain 1 with N104D, S106K
chain 2: B1 chain 2 with T163R, N166D
B14: FIXa variant R318Y/R338E/Y345A/R403E/E410N (mature FIX numbering) (protein)
chain 1: B1 chain 1 with N104D, S106K
chain 2: B1 chain 2 with Y165A
B15: FIXa variant R318Y/R338E/Y345A/N346D/R403E/E410N (mature FIX numbering) (protein)
chain 1: B1 chain 1 with N104D, S106K
chain 2: B1 chain 2 with Y165A, N166D

Key:
[1] = target: plasma purified human antithrombin III (AT-III), in complex with unfractionated heparin; assay: K0.5 of variant over K0.5 of Catalyst Biosciences WT FIXa; AT-III/UFH inhibition assay; from lower limit K0.5
[2] = target: T1, plasma purified human AT-III (antithrombin III), in complex with full-length unfractionated heparin (UFH); assay: ratio of K0.5 of the variant to K0.5 of Catalyst Biosciences WT FIXa, AT-III/UFH inhibition
[3] = target: T1, plasma purified human AT-III …; assay: ratio of K0.5 (lower-limit value) of the variant to K0.5 of Catalyst Biosciences WT FIXa, AT-III/UFH inhibition

Sequence of Factor X (FX), P00742 (P00742 whole entry, looked up): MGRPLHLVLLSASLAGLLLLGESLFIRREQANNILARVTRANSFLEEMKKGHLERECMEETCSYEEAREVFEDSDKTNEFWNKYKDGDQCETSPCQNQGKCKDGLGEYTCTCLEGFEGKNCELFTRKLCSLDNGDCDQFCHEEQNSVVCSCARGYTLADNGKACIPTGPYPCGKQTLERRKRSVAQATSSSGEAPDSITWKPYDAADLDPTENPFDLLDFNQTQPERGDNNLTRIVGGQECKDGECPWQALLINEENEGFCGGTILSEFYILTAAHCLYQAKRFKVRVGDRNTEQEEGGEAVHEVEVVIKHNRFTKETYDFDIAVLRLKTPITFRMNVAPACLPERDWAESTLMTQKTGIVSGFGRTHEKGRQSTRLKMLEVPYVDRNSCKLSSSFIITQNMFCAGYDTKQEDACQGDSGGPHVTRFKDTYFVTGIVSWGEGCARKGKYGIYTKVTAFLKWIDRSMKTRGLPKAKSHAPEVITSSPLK

Protein | K0.5-mut/K0.5-wt [2] | K0.5-mut/K0.5-wt [3] | other results
B1 |  |  | KM (Factor X (FX), P00742): 38.5 nM; K0.5-mut/K0.5-wt [1]: > 517
B2 |  |  | KM (Factor X (FX), P00742): 30.4 nM; K0.5-mut/K0.5-wt [1]: > 517
B3 |  |  | KM (Factor X (FX), P00742): 50.7 nM; K0.5-mut/K0.5-wt [1]: > 517
B4 |  |  | KM (Factor X (FX), P00742): 48 nM; K0.5-mut/K0.5-wt [1]: > 517
B5 | 8.1 |  | 
B6 | 7.9 |  | 
B7 | 65.3 |  | 
B8 | 35.8 |  | 
B9 | 288 |  | 
B10 |  | 517 | 
B11 |  | 517 | 
B12 |  | 517 | 
B13 |  | 517 | 
B14 |  | 517 | 
B15 |  | 517 | 
